Data set [1] deals with Biotinylated histone H3:21-44 peptide containing dimethylated K27.
The test system of data set [2] is Biotinylated histone H3:21-44 peptide containing monomethylated K27.
The subject of data set [3] is Chicken erythrocyte oligonucleosomes.
Data set [4] deals with Biotinylated histone H3:21-44 peptide containing unmethylated K27.

With “Recombinant five-component PRC2 complex containing Y641N mutant EZH2”, the K (K1/2, concentration of peptide resulting in half-maximal velocity) is 157 nM in data set [1] and 280 nM in data set [2]. Moreover, the K (Km for nucleosome) in data set [3] came out at 0.191 µM.

Turning to “Recombinant five-component PRC2 complex containing Y641F mutant EZH2”, the K (K1/2, concentration of peptide resulting in half-maximal velocity) is 191 nM in data set [1], 404 nM in data set [2] and 240 nM in data set [4]. For the same substance, the K (Km for nucleosome) in data set [3] stood at 0.176 µM.

As for “Recombinant five-component PRC2 complex containing Y641S mutant EZH2”, the K (K1/2, concentration of peptide resulting in half-maximal velocity) in data set [1] turned out to be 136 nM; in data set [2], 249 nM. The substance also displayed a K (Km for nucleosome) in data set [3] of 0.137 µM.

“Recombinant five-component PRC2 complex containing Y641H mutant EZH2”: the results for the K (K1/2, concentration of peptide resulting in half-maximal velocity) in data set [1] and in data set [2] were 148 nM and 319 nM, respectively. Moreover, the K (Km for nucleosome) in data set [3] stood at 0.14 µM.

These data come from patent US8895245.
